Reference: US6485936

What was measured:
GST-HSF1N101 (human) = GST-HSF1N101 (human) (UniProt Q00613); assay: GST pull-down; 35S-labeled in vitro translated protein on GST-fusion glutathione-Sepharose, SDS-PAGE, autoradiography, BAS2000 quantification
GST-HSF2N96 (human) = GST-HSF2N96 (human) (UniProt Q03933); assay: as above
GST-HSF2N96 (human), sequence (Q03933 96-536): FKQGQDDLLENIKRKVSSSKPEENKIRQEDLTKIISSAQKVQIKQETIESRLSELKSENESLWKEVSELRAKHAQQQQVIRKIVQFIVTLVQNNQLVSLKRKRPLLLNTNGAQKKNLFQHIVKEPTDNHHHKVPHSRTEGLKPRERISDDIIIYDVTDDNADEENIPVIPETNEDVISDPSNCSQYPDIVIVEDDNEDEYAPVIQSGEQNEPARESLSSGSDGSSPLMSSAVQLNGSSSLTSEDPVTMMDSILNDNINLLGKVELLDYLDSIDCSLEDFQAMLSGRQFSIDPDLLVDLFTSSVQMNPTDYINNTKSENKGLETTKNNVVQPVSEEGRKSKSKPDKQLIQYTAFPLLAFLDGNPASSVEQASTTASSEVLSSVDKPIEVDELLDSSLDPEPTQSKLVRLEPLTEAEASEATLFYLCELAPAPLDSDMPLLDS

GST-HSF1N101 (human), sequence (Q00613 101-529): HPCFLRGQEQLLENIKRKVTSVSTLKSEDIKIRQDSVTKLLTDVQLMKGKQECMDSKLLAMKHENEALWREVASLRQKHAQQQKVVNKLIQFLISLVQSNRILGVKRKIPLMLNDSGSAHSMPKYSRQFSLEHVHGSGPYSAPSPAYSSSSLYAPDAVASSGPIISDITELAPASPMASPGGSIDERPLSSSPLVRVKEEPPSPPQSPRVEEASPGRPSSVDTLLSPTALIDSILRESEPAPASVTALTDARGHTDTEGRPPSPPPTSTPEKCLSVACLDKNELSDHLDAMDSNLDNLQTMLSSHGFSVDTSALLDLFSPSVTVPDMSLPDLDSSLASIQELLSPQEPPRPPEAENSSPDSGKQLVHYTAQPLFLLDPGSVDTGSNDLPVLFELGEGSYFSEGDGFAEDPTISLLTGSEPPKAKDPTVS

B1: HSF2 binding protein (HSF2BP), in vitro translated, 35S-methionine-labeled (protein)
chain: MGEAGAAEEACRHMGTKEEFVKVRKKDLERLTTEVMQIRDFLPRILNGEVLESFQKLKIVEKNLERKEQELEQLKMDCEHFKARLETVQADNIREKKEKLALRQQLNEAKQQLLQQAEYCTEMGAAACTLLWGVSSSEEVVKAILGGDKALKFFSITGQTMESFVKSLDGDVQELDSDESQFVFALAGIVTNVAAIACGREFLVNSSRVLLDTILQLLGDLKPGQCTKLKVLMLMSLYNVSINLKGLKYISESPGFIPLLWWLLSDPDAEVCLHVLRLVQSVVLEPEVFSKSASEFRSSLPLQRILAMSKSRNPRLQTAAQELLEDLRTLEHNV
modifications: 35S-methionine label
proportion of bound HSF2BP (% of the level of input) (% of the level of input) (GST-HSF1N101 (human)): 8.5 | proportion of bound HSF2BP (% of the level of input) (% of the level of input) (GST-HSF2N96 (human)): 7.9
